One molecule from publication PMC7914648 (Pharmaceuticals, 2021) can be followed below.

SMILES strings stand for the structures. “Also recorded” adds a separate entry of the source.

The nature of data set [1]: Aqueous solubility determination. Type of data set: physicochemical. On the procedure:
For TAT-PAPTP and An2-PAPTP, three distinct suspensions were prepared by diluting 25 mM stock solutions in DMSO to 100 μM, in 0.9% NaCl saline or water (DMSO < 0.4%). The suspensions were sonicated 5 min and immediately analyzed. The suspensions were then centrifuged at 12,000× g, 18 °C, for 1 and 2 h, and the supernatants were analyzed by HPLC/UV at the end of each centrifugation. An additional analysis was performed after 24 h of standing. The chromatographic peak areas were used to determine the concentration of the compound in the supernatants, based on calibration curves built using solutions in DMSO.

Data set [2] is described as follows: Preliminary brain levels after intraperitoneal An2-PAPTP. Type of data set: in vivo, mouse. Conditions: An2-PAPTP 5 µmol/kg bw i.p. in DMSO; sacrifice at 20 min or 1, 2, 4 h; four mice. How it is done:
In preliminary tests An2-PAPTP was administered at 5 µmol/kg bw by the intraperitoneal (i.p.) route, using dimethylsulfoxide (DMSO) as the vehicle. […] Many brain-penetrating peptides bind to biomolecules such as proteins and cell structures such as membranes. Furthermore, the absence of a flowing bloodstream at the injection site may cause a poorly soluble molecule to remain confined in the vicinity of the point of delivery. […] Collectively, these preliminary results led to the adoption of the intravenous route. An2-PAPTP (5 µmoles/kg bw, in plasma) was thus administered by tail vein injection to mice.

A further data set relates to C57BL mice. The experiment in a line: Observed toxicity after tail vein injection. The conditions noted are these: 5 µmoles/kg bw by tail vein injection in mouse plasma; no proper toxicological study. Type of data set: in vivo. How it is done: TAT-PAPTP (5 µmoles/kg bw) was administered by tail vein injection to 2 C57BL mice. […] The observed toxicity was not due to the use of plasma, since mice were not made ill by the administration of PAPTP or An2-PAPTP in the same vehicle (see below, Section 2.7).
A stock solution of the peptide-PAPTP conjugates was prepared in DMSO. TAT-PAPTP was administered at 8 and 5 μmol/kg bw and An2-PAPTP only at 5 μmol/kg bw. The calculated quantity of drugs was diluted from the stock solution in saline or mouse plasma to a final volume of 200 μL.

Take `CC[C@H](C)[C@H](NC(=O)Oc1ccc(CCCOc2ccc([P+](CCCc3ccc(OCCCCOc4c5ccoc5cc5oc(=O)ccc45)cc3)(c3ccccc3)c3ccccc3)cc2)cc1)C(=O)N[C@H](C(=O)N[C@@H](Cc1ccccc1)C(=O)N[C@@H](Cc1ccccc1)C(=O)N[C@@H](Cc1ccc(O)cc1)C(=O)NCC(=O)NCC(=O)N[C@@H](CO)C(=O)N[C@@H](CCCNC(=N)N)C(=O)NCC(=O)N[C@@H](CCCCN)C(=O)N[C@@H](CCCNC(=N)N)C(=O)N[C@@H](CC(N)=O)C(=O)N[C@@H](CC(N)=O)C(=O)N[C@@H](Cc1ccccc1)C(=O)N[C@@H](CCCCN)C(=O)N[C@H](C(=O)N[C@@H](CCC(=O)O)C(=O)N[C@@H](CCC(=O)O)C(=O)N[C@@H](Cc1ccc(O)cc1)C(=O)O)[C@@H](C)O)[C@@H](C)O` [An2-PAPTP]: in data set [1] (10 mM phosphate buffer, supernatants after centrifugation, HPLC), the “solubility in 10 mM phosphate buffer” value is “precipitated”. In data set [1] (0.9% NaCl saline, kinetic, 25 mM DMSO stock diluted to 100 μM (DMSO < 0.4%), sonicated 5 min, centrifuged 12,000 × g 18 °C 1 and 2 h, supernatant HPLC/UV, detection limit 0.1 µM), the “solubility in 0.9% NaCl saline” value is given as “precipitated in saline; also recorded: insoluble in saline”. The solubility in water result in data set [1] (water, kinetic, 25 mM DMSO stock diluted to 100 μM (DMSO < 0.4%), sonicated, centrifuged 12,000 × g 18 °C, supernatant HPLC/UV) is reported as “above 100 μM”. Moreover, in data set [2], the “detection in brain after i.p. administration” value is “no An2-PAPTP or PAPTPL could be detected”. The “observed toxicity in mice” value with C57BL mice is listed as “not made ill; also recorded: considerably less toxic than TAT-PAPTP; also recorded: did not show toxicity”.
